Experiment [1] addresses HPV16 E6, wheat germ extract translated (human papillomavirus type 16) (UniProt P03126).
Experiment [2] has the same target. The source holds these as a separate data set.

In the case of “GST-E6-AP fusion protein, amino-terminal portion (amino acids 213 to 489 of SEQ ID NO:1)”, the percent of the input 35S-labeled HPV16 E6 bound in experiment [1] turned out to be 50%.

For “GST-E6-AP fusion protein with amino acids 371 to 440 of SEQ ID NO:1 (SEQ ID NO:2)”, in experiment [1], the percent of the input 35S-labeled HPV16 E6 bound stood at 50%. For “synthetic peptide consisting of the 18 mer region, amino acids 391 to 408 of SEQ ID NO:1 (SEQ ID NO:3)”, the molar excess for fifty percent binding competition in experiment [2] came out at 5000.

The values above are taken from patent US5532348.
